B1: CLCN6 (parent)
chain: MAGCRGSLCCCCRWCCCCGERETR
B2: RAB40A (parent)
chain: NWLGRPSKVLSLQDLCCRTIVSCT

Variants of: B1
Assay: protein stability index of a GFP-peptide fusion (GPS, HEK-293T) (PSI 1-6); higher = more stable
Details: c terminus: a fixed tail appended
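Note: lentivirally expressed fusions sorted by FACS into six bins by GFP to DsRed ratio, PSI derived from sequencing read proportions per bin multiplied by bin number.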

Protein stability index, by site and new letter:
E20: W 1.11; V 1.93; T 1.01; H 1.56; Y 1.89; R 2.33; N 2.36; L 2.06; C 2.16; S 2.25; F 1.55; A 1.96; I 1.55; D 2.27; K 2.22; G 2.24; Q 1.55
C18: M 1.42; H 2.06; P 1.8; D 2.77; Q 2.58; S 2.47; L 2.49; A 1.26; N 1.49; Y 1.84; V 1.3; G 1.79; K 1.85; W 3.21; T 1.86
C15: L 2.74; V 2.08; I 1.87; P 1.5; N 1.76; Y 1.36; K 1.82; Q 2.39; M 1.65; S 2
E22: Q 1.83; P 2.12; F 2.16; I 2.15; M 1.65; D 1.92; T 2.09; H 1.73; C 1.89; K 1.49; R 1.69; L 2.3; N 1.48; S 1.65
R21: M 1.08; A 2.37; E 2.27; I 1.5; T 2.77; F 1.06; N 1.87; V 1.66; C 2.56; Q 1.39; W 1.52; K 1.79; D 2.82; L 1.76; Y 2.8; S 2.18
C16: W 2.86; A 2.12; L 1.55; D 2.66; T 1.86; E 2.22; P 1.33; I 2.23; V 2.02; R 1.28; K 1.65; H 1.47; S 1
C17: A 2.48; W 2.41; E 1.8; S 1.45; T 1.27; F 2.29; P 1.8; D 1.96; Y 1.97; I 1.62; V 1.41; L 2.55; K 1.89; R 2.67; N 1.52; Q 1.09
G19: I 1.45; H 1.15; F 2.53; Y 2.41; D 2.22; K 1.8; P 2.17; T 2.02; W 1.66; N 1.44; Q 1.29; C 1.83; A 1.49; E 1.86; M 2.34
T23: P 1.83; W 2.78; Q 1.8; G 1.78; C 2.73; M 1.87; D 2.15; S 2.36; R 1.77; Y 1.79; N 2.15
R24: C 3.05; I 1.87; P 2.38; D 2.79; Y 2.44; S 2.57; G 2.44; M 1.91; L 2.73; E 2.95; K 2.78; Q 2.54; T 2.71; F 1.79; N 2.74; H 2.55

Variants of: B2
Assay: as above
Details: c terminus: a fixed tail appended

Protein stability index: each site, then its substitutions
L10: T 2.49; I 2.41; N 2.22; P 2.62; W 1.93; M 2.56; K 2.35; C 2.04; Q 2.24; V 2.09; F 2.02; G 2.64; Y 2.43; A 2.52; D 2.31; E 2.15; S 2.57; H 2.07; R 2.6
P6: Y 1.88; V 1.91; C 2.13; K 2.06; D 2.48; A 1.79; T 2.14; G 2.25; Q 2.06; I 2.4; S 2.38; R 2.29; H 2.21; N 2.66; F 2.17; M 1.76; E 2.55; L 1.76; W 2.11
K8: A 1.98; H 2.16; F 2.35; T 1.88; Y 1.96; W 2.33; E 2.26; P 2.29; G 2.01; S 2.31; I 2.11; D 2.1; N 2.52; C 2.08; V 1.89; Q 1.97; L 2; R 2.65; M 1.75
W2: C 2.71; L 2.68; D 3.7; N 3.23; S 2.96; T 3.08; M 2.62; G 3.23; Q 3.14; H 3.05; A 3.05; E 3.18; V 2.71; Y 2.68; K 3.11; I 3.01; R 3; P 2.81; F 2.64
S11: A 1.88
G4: Y 2.35; D 2.57; I 2.13; P 2.42; V 2.56; T 2.07; A 2.73; M 2.34; F 2.23; R 2.42; E 2.77; C 1.5; L 2.29; Q 2.34; K 2.48; S 2.21; H 2.33; N 2.27; W 2.09
V9: N 2.4; L 2.12; F 1.93; G 2.32; P 2.09; K 2.29; Y 2.23; E 2.3; T 2.45; W 2.16; R 1.85; H 2.21; D 2.28; Q 2.2; A 2.31; C 2.07; S 2.05; I 2.36; M 2.23
S7: H 1.96; Y 1.92; L 2.13; A 2.24; M 2.03; N 1.95; D 2.28; K 2.59; P 2.27; F 2.28; R 2.02; Q 2.47; E 2.12; G 2.15; I 2.25; W 1.82; C 2.21; V 2.22; T 2.41
R5: Q 2.55; P 3.14; S 2.69; Y 2.06; E 2.7; I 2.2; N 2.56; D 2.51; K 2.42; L 2.06; G 2.35; F 2.27; A 2.46; T 2.42; H 2.25; C 2.76; V 2.52; M 2.85; W 3.09
N1: P 2.35; S 2.36; A 2.04; Y 1.83; Q 2.29; I 1.84; V 2.15; D 2.12; E 2.6; C 2.02; R 2.21; L 1.62; T 2.16; F 2.16; G 3.03; M 1.75; W 2.22; K 1.97; H 2.2
L3: I 2.36; R 2.56; H 2.3; F 2.28; D 2.62; M 2.2; A 2.53; T 2.95; G 2.69; P 2.58; E 2.75; Q 2.85; Y 2.51; N 2.46; V 2.26; C 2.39; W 2.11; K 3.05; S 2.64

From the supplement of paper PMC10567573
